Read-outs that look alike come from different tables or passages of the source.
How the values were obtained:
Type in all cases: in vivo
minipigs = assay: Pre-clinical toxicity in minipig; conditions: set from pre-clinical toxicity result in minipigs
Description: According to inventors' pre-clinical toxicity result of DC009 in minipig, the inventors set up a limit on plasma exposure of 1177 ng/mL in minipigs. The inventors then set up a safety factor to provide a margin of safety for protecting human subjects receiving the initial clinical dose. As described in the Background, the default safety factor is 10 but it may be adjusted based on available safety data.

[1] = test system: embolic middle cerebral artery occlusion (MCAO) rats; assay: Embolic middle cerebral artery occlusion (MCAO) model in Wistar rat (Examples 2, 7-9); conditions: for Mean neurological severity score (NSS): 24 hours post-MCAO, scale 0-18; for blood flow compared to saline treated group: measured for 3 hours, p<0.0001 vs saline
Description: At Day 0, anesthetize the rats to collect blood from the femoral artery to prepare the homologous clot. Create a partial arteriotomy with a microscissors and then insert a sterile PE-50 tubing ([…]) along the artery. Arterial blood collected in this length of the PE-50 tubing commonly generates ˜10 indusial clots that are suitable for MCAO. Keep the clot in the tube for 2 hours at room temperature and subsequently retain for 22 hours at 4° C.
At Day 1, to prepare the embolus, cut the clot containing PE-50 tubing into 32 mm segment in length and connect the segment with a 3 ml saline filled syringe with 23G needle. Push the syringe to flush the clot out of the PE-50 tubing into saline filled Petri dish. Draw and flush the clot into and out of the PE-10 tubing (draw from clot's end to avoid folding and twisting of the clot), respectively, 10-15 times to wash out the majority of the entrapped red blood cells until the clot without further RBCs releasing. Connect the PE-10 tubing to the modified PE-50 catheter and shift the clot into PE-50 catheter. Then, the modified PE-50 catheter is connected to a 100 μl Hamilton microsyringe. The clot is now ready to be used.
At Day 1, anesthetize the rats. Bluntly dissect the carotid sheath along the common carotid artery (CCA) until the ECA (ipsilateral external carotid artery), PPA (pterygopalatine artery), and ICA (internal carotid artery) bifurcation is exposed. […] Prepare laser Doppler flow probe into the tube of head. Temporarily clamp the CCA, PPA, and ICA with clip and apply a 4-0 silk suture loosely around the trunk of the ECA near bifurcation. Release the clip slowly and further advance the catheter within the ICA to enter the intracranial segment of the ICA until resistance is felt. The total length of the catheter that has been advanced is −19-22 mm from the ECA arteriotomy site. Retract the catheter 1-2 mm and slowly inject the clot with 5-10 μl of saline at rate of 10 μl/min. The percentage of regional cerebral flow (rCBF) decrease into ˜20-30% after clot injection. Wait for 30 minutes to let the clot stable at the ICA. Retract the catheter until its tip reaches the ECA/ICA bifurcation. Re-apply a clip to temporarily clamp the CCA and the ICA and then withdraw the catheter from the arteriotomy. Tighten the 4-0 silk suture around the ECA trunk to ligate the arteriotomy. Remove the clip. Wait for another 30 minutes to make sure the animal is stable and there is no blooding issue. Close the incision and terminate the anesthesia.
Neurological deficits were assessed at 24 h after MCAO surgery. The neurological function was graded on a scale of 0-18, with 0 representing normal function and 18 representing maximum neurological deficits (see FIG. 2).
24 hours after the induction of MCAO, anesthetize the rat with 5% isoflurane and use normal saline to do the perfusion from heart (150 ml). Decapitate the rat and collect the brain. Rinse the collected dish and matrix with PBS before used. To tear out clot after taking photo. Slice the brain coronally into […] 2-mm slices with a brain matrix on ice (Cut the brain into 8 pieces). Incubate the brain slices in 2% 2,3,5-triphenyltetrazolium chloride (TTC) (Sigma-Aldrich) in 1×PBS for 20 min at room temperature (avoid light) and record the result by photo. Then, using ImageJ to determine the size and extent of the infarction.
The caudal sides of all the TTC sections were scanned using a digital camera, and the images were stored as JPEG. The non-ischemic and ischemic hemisphere infarct areas were measured using image J (Image J, Bethesda, MD) software. All eight infarct area measurements were calculated with a 2 mm distance between the slices. […]

[2] = Plasma pharmacokinetics after single IV bolus in Sprague Dawley rat; conditions: for AUC(0-inf) / Cmax / AUC(0-t): male, Sprague-Dawley, rat, plasma, n=3; for AUC(0-t): read-out: AUClast, Mean (converted)
Description: The plasma pharmacokinetics of DC009 was studied in SD Rat following a single IV bolus administration of DC009. Male SD rats were dosed with DC009 at 0.001, 0.01, 0.1, 1 and 10 mg/kg by intravenous bolus injection with a dose volume of 1 mL/kg (n=3 per treatment group).

[3] = 0.001 mg/kg IV bolus, some concentrations below LLOQ 5 ng/mL
[4] = 0.01 mg/kg IV bolus, some concentrations below LLOQ 5 ng/mL

CC(NC(=O)C1CCCN1)C(=O)NC(CCCCN)C(=O)NCCCCC(NC(=O)C1Cc2cc(O)c(O)cc2C(C)(C)N1)C(=O)O (stereo not drawn) [DC009, 3S-6,7-dihydroxy-1,1-dimethyl-1,2,3,4-tetrahydro-isoquinoline-3-acyl-Lys(Pro-Ala-Lys)]
limit on plasma exposure (minipigs): 1177 ng/mL | Mean neurological severity score (NSS) ([1]; DC009 0.005 mg/kg, 15-minute IV infusion 3 hours after stroke onset): 7.13 ± 0.64 | infarct size compared to saline and rtPA treated groups ([1]; DC009 0.025 mg/kg at 3 and 6 hours post MCAO surgery, 24 hours after stroke, TTC, FIG. 4): significant smaller infarct size | restoring occluded blood flow ([1]; DC009 0.05 mg/kg, 15-minute IV infusion 1 hour after stroke onset, FIG. 3): good efficacy | blood flow compared to saline treated group ([1]; DC009 0.05, 0.1, 0.2 and 0.4 mg/kg, 15-minute IV infusion 1 hour after stroke onset, FIG. 3): increased | dose proportionality of Cmax and AUC0-∞ ([2]; dose of 0.1 to 10 mg/kg groups): approximately dose-proportional increases | AUC(0-inf) [2, 3]: 1.88 ng·h/mL | Cmax [2, 3]: 1.6 ng/mL | AUC(0-t) [2, 3]: 1.76 ng·h/mL | AUC(0-inf) [2, 4]: 4.04 ng·h/mL | Cmax [2, 4]: 6.1 ng/mL | AUC(0-t) [2, 4]: 3.35 ng·h/mL | AUC(0-inf) ([2]; 0.1 mg/kg IV bolus): 8.31 ng·h/mL | Cmax ([2]; 0.1 mg/kg IV bolus): 59.9 ng/mL | AUC(0-t) ([2]; 0.1 mg/kg IV bolus): 7.89 ng·h/mL | AUC(0-inf) ([2]; 1 mg/kg IV bolus): 53.2 ng·h/mL | Cmax ([2]; 1 mg/kg IV bolus): 426 ng/mL | AUC(0-t) ([2]; 1 mg/kg IV bolus): 52.8 ng·h/mL | AUC(0-inf) ([2]; 10 mg/kg IV bolus): 937 ng·h/mL | Cmax ([2]; 10 mg/kg IV bolus): 8120 ng/mL | AUC(0-t) ([2]; 10 mg/kg IV bolus): 936 ng·h/mL

rtPA: Alteplase (Activase), a recombinant tissue-type plasminogen activator (rtPA) [reference compound]
blood flow compared to saline treated group ([1]; rtPA 10 mg/kg (10% IV bolus, rest infused for 30 minutes) 1 hour after stroke onset, FIG. 3): increased | Mean neurological severity score (NSS) ([1]; rtPA 10 mg/kg (10% IV bolus, rest infused for 30 minutes) 3 hours after stroke onset): 6.38 ± 0.74 | infarct volumes (% hemisphere) ([1]; rtPA 10 mg/kg (10% IV bolus, rest infused for 30 minutes) 3 hours after stroke onset, 24 hours, TTC): 43.23 ± 11.03 % hemisphere

From US12648942B2, “Method for treating acute ischemic stroke” (Lumosa Therapeutics Co., LTD, priority 2021, dated 2026)
